# PMC5419741
# Experiments:
# [1] = tested on: LARP1 DM15 E886 mutant (Homo sapiens), Q6PKG0-3; assay: EMSA; settings: 5' m7Gppp cap; Competition assays: 20 mM Tris pH 8, 150 mM NaCl, 10% glycerol, 1 mM DTT, 0.5 ug BSA, 0.5 ug tRNA, 30 min on ice, native gel; EMSA as in Lahr et al. 2015 with …
# [2] = tested on: LARP1 DM15 Y922 mutant (Homo sapiens), Q6PKG0-3; assay: EMSA; settings: 5' m7Gppp cap; Competition assays: 20 mM Tris pH 8, 150 mM NaCl, 10% glycerol, 1 mM DTT, 0.5 ug BSA, 0.5 ug tRNA, 30 min on ice, native gel; EMSA as in Lahr et al. 2015 with …
sequence,measurement,setting,value
CCUCUUUUCCGUGGCGCCUCGGAGGCGUUCAGCUGCUUCAAG [m7Gppp-RPS6 42mer (capped TOP)],Kd,[1],8 µM
same,Kd,[2],2.6 µM
